Assay results: article PMC6342966

Target: His6-Z_GFP 11 (GFP 11 genetically fused to the C-terminus of the IgG binding Z domain derived from protein A)
Assay: split reporter (BiFC, NanoBiT); split-GFP fluorescence complementation in solution, 96-well plate, TNG buffer, 225 µM His6-Z_GFP 11 and 0.2 µM GFP 1–10 variant, 25 °C, excitation 488 nm, emission 535 nm, controls without His6-Z_GFP 11 subtracted

Substance	rate of increase of the fluorescent signal after adding His6-Z GFP 11	rate of increase of the fluorescent signal after adding His6-Z GFP 11, additional hour after the first two minutes	rate of increase of the fluorescent signal after adding His6-Z GFP 11, first two minutes
GFP 1–10 OPT (non-maturated) (domain or fragment)	0.5 a.u./second	–	–
GFP 1–10^mat (GFP 1–10 with maturated chromophore) (domain or fragment)	–	6 a.u./sec	83 a.u./sec
